Measured values published in US20260232831A1 (FRONTAIM BIOMEDICINES, published 2026).
Where a chain is given by its changes, count along the chain named.

T1: human Trop2 on the cell surface (A-431, ME-180, MDA-MB-468 cells) (human, UniProt P09758 27-323)
T1 sequence (looked up): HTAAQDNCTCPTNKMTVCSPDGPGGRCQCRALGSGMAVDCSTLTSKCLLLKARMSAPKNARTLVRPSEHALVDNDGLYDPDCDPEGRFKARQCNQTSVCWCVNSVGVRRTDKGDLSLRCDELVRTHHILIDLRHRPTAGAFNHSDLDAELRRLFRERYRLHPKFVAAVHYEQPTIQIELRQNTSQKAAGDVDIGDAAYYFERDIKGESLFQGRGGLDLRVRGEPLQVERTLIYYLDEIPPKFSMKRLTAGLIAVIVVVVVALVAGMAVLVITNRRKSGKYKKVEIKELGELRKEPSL

B1: bispecific antibody 3scFv×hL0125C (bispecific antibody)
heavy: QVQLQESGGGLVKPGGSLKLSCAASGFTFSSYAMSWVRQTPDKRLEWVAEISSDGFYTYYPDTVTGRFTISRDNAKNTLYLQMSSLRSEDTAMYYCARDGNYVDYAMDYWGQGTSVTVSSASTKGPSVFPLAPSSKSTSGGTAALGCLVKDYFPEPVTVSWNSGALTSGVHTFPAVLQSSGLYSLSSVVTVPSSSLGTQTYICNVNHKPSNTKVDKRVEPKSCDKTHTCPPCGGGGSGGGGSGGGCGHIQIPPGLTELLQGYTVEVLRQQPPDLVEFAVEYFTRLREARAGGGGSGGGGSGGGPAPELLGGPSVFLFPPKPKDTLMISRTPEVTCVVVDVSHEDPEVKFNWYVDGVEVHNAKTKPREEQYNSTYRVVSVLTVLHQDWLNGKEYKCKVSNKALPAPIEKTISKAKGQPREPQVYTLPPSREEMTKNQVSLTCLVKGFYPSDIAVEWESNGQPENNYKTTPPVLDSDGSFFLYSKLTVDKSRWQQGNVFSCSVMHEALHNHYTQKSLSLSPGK
light: DIQLTQSPAIMSASPGERVTMTCRASSSVSSSYLHWYQQRSGQSPKLLIYSTSNLASGVPARFSGSGSGTDYSLTISSLEAEDAATYYCQQYSGSPLTFGSGTKLEIKRTVAAPSVFIFPPSDEQLKSGTASVVCLLNNFYPREAKVQWKVDNALQSGNSQESVTEQDSKDSTYSLSSTLTLSKADYEKHKVYACEVTHQGLSSPVTKSFNRGEC
scFv: not shown
modifications: The AD2 of the scFv is docked on the DDD2 dimer and locked by disulfide bonds; the complex holds 2 heavy chains, 2 light chains and 1 scFv.
notes: hL0125 IgG with DDD2 inserted in the hinge of each heavy chain; The DDD2 dimer docks the AD2 of one anti-CD3 scFv (3scFv), giving a 2+1 format assembled intracellularly; also called Construct C; Format C
B2: humanized anti-Trop2 antibody hL0125 (antibody, V domains shown)
VL: DIQLTQSPAIMSASPGERVTMTCRASSSVSSSYLHWYQQRSGQSPKLLIYSTSNLASGVPARFSGSGSGTDYSLTISSLEAEDAATYYCQQYSGSPLTFGSGTKLEIKR
VH: QVQLQESGGGLVKPGGSLKLSCAASGFTFSSYAMSWVRQTPDKRLEWVAEISSDGFYTYYPDTVTGRFTISRDNAKNTLYLQMSSLRSEDTAMYYCARDGNYVDYAMDYWGQGTSVTVSS
notes: Variable regions were cloned into human IgG expression vectors to give a full-size humanized IgG; also called modular antibody hL0125
B3: chimeric anti-Trop2 antibody cL0125 (antibody, V domains shown)
VH: VKLQESGGGLVKPGGSLKLSCAASGFTFSSYAMSWVRQSPEKRLEWVAEISSDGFYTYYPDTVTGRFTISRDNAKNTLYLEMSSLRSEDTAMYYCARDGNYVDYAMDYWGQGTSVTVSS
VL: B2 VL with R18K, Q43A, L48W, D71S, L79V
notes: Chimeric antibody made from the murine L0125 VL and VH

Tests used:
[1] = target: T1, human Trop2 on the cell surface (A-431, …); assay: cell-based or functional assay
[2] = target: T1, human Trop2 on the cell surface (A-431, …); assay: flow cytometry on ME-180 cells, AF488 goat anti-human IgG Fc detection
Experimental: For CD3 binding, Jurkat cells were dispensed into a 96-well plate at 2×10⁵/well, and incubated with indicated agents at 4° C. for 45 min. After wash with PBS, cells were incubated with AF488 labeled goat anti-human IgG Fe. For Trop2 binding, ME-180 cells were dissociated from culture, dispensed into a 96-well plate at 2×10⁵/well, and incubated with indicated agents at 4° C. for 45 min. After wash with PBS, cells were incubated with AF488 labeled goat anti-human IgG Fc. Binding was analyzed by low cytometry using Attune N×T Flow Cytometer.
After wash with PBS, cells were incubated with a AF488 labeled goat anti-human IgG Fc secondary antibody at 4° C. for another 45 min. After two wash steps, binding was analyzed by flow cytometry using Attune N×T Flow Cytometer.

[3] = target: T1, human Trop2 on the cell surface (A-431, …); assay: flow cytometry on A-431 cells, AF488 goat anti-human IgG Fc detection
Experimental: All incubations were 45 min at 4° C. plus washes with 1% BSA in PBS between incubations. Binding signal was measured by Attune™ N×T Acoustic Focusing Cytometer (ThermoFisher Scientific).

[4] = target: T2, human CD3 on Jurkat cell surface (human, UniProt P07766 23-207); assay: flow cytometry on Jurkat cells, AF488 goat anti-human IgG Fc detection
T2 construct: whole, on cells; also called cell surface CD3 of Jurkat
T2 sequence (P07766 23-207): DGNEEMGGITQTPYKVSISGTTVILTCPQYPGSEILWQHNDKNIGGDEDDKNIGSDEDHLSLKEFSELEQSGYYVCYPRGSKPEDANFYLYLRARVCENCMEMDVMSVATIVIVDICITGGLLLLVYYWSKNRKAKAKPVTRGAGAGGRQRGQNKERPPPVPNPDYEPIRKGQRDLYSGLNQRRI
Experimental: For CD3 binding, Jurkat cells were dispensed into a 96-well plate at 2×10⁵/well, and incubated with indicated agents at 4° C. for 45 min. After wash with PBS, cells were incubated with AF488 labeled goat anti-human IgG Fc. […] After wash with PBS, cells were incubated with AF488 labeled goat anti-human IgG Fe.
After wash with PBS, cells were incubated with a AF488 labeled goat anti-human IgG Fc secondary antibody at 4° C. for another 45 min.

| Binder | IC50, 60-hour MTS viability assay, BT-474 cells with human PBMCs (10:1) [1] [nM] | IC50, 60-hour MTS viability assay, HCT116 cells with human PBMCs (10:1) [1] [nM] | IC50, 60-hour MTS viability assay, MDA-MB-231 cells with human PBMCs (10:1) [1] [nM] | IC50, 60-hour MTS viability assay, MDA-MB-468 cells with human PBMCs (10:1) [1] [nM] | EC50 (read off the curve) [2] [nM] | EC50 (read off the curve) [3] [nM] | binding result [4] |
| --- | --- | --- | --- | --- | --- | --- | --- |
| B1 | ~0.02 | ~0.018 | ~0.013 | ~0.006 | ~10 | – | – |
| B2 | – | – | – | – | ~6 | ~10 | no binding (tested: 20.0 nM) |
| B3 | – | – | – | – | – | ~10 | – |
